# B1: human C1s enzyme purified from human plasma (Complement Technology Inc., Cat # A103) (protein)
# chain: EPTMYGEILSPNYPQAYPSEVEKSWDIEVPEGYGIHLYFTHLDIELSENCAYDSVQIISGDTEEGRLCGQRSSNNPHSPIVEEFQVPYNKLQVIFKSDFSNEERFTGFAAYYVATDINECTDFVDVPCSHFCNNFIGGYFCSCPPEYFLHDDMKNCGVNCSGDVFTALIGEIASPNYPKPYPENSRCEYQIRLEKGFQVVVTLRREDFDVEAADSAGNCLDSLVFVAGDRQFGPYCGHGFPGPLNIETKSNALDIIFQTDLTGQKKGWKLRYHGDPMPCPKEDTPNSVWEPAKAKYVFRDVVQITCLDGFEVVEGRVGATSFYSTCQSNGKWSNSKLKCQPVDCGIPESIENGKVEDPESTLFGSVIRYTCEEPYYYMENGGGGEYHCAGNGSWVNEVLGPELPKCVPVCGVPREPFEEKQRIIGGSDADIKNFPWQVFFDNPWAGGALINEYWVLTAAHVVEGNREPTMYVGSTSVQTSRLAKSKMLTPEHVFIHPGWKLLEVPEGRTNFDNDIALVRLKDPVKMGPTVSPICLPGTSSDYNLMDGDLGLISGWGRTEKRDRAVRLKAARLPVAPLRKCKEVKVEKPTADAEAYVFTPNMICAGGEKGMDSCKGDSGGAFAVQDPNDKTKFYAAGLVSWGPQCGTYGLYTRVKNYVDWIMKTMQENSTPRED
# Target: six other anti-C1s binding antibodies
protein,measurement,value
B1,"C1s-mediated C4 α-chain cleavage (SDS gel), antibody at approximately 10-fold molar excess","six other anti-C1s binding antibodies, including the C1s binding antibody 3F8 (see FIG. 1, Example 2), did not show inhibitory activity"

# Reference: patent US20160090425
